The values that follow come from publication PMC11432197 (International Journal of Molecular Sciences, 2024).

For the test, the target named is T1, recombinant mTOR kinase domain (amino acid 1363-2549) (UniProt P42345 1363-2549).
T1 construct: also called mTOR kinase domain protein; mTOR (in vitro); source: bought: Sigma-Aldrich (Cat #14-770)
Description: co-IP; in vitro: ETV7 and mTOR incubated overnight at 4 °C in the presence or absence of Ndel-FRB and/or 120 aa-LBE; ETV7 IPs immunoblotted for mTOR, ETV7 and Flag. Conditions: both partners purified.

T1 sequence (P42345 1363-2549): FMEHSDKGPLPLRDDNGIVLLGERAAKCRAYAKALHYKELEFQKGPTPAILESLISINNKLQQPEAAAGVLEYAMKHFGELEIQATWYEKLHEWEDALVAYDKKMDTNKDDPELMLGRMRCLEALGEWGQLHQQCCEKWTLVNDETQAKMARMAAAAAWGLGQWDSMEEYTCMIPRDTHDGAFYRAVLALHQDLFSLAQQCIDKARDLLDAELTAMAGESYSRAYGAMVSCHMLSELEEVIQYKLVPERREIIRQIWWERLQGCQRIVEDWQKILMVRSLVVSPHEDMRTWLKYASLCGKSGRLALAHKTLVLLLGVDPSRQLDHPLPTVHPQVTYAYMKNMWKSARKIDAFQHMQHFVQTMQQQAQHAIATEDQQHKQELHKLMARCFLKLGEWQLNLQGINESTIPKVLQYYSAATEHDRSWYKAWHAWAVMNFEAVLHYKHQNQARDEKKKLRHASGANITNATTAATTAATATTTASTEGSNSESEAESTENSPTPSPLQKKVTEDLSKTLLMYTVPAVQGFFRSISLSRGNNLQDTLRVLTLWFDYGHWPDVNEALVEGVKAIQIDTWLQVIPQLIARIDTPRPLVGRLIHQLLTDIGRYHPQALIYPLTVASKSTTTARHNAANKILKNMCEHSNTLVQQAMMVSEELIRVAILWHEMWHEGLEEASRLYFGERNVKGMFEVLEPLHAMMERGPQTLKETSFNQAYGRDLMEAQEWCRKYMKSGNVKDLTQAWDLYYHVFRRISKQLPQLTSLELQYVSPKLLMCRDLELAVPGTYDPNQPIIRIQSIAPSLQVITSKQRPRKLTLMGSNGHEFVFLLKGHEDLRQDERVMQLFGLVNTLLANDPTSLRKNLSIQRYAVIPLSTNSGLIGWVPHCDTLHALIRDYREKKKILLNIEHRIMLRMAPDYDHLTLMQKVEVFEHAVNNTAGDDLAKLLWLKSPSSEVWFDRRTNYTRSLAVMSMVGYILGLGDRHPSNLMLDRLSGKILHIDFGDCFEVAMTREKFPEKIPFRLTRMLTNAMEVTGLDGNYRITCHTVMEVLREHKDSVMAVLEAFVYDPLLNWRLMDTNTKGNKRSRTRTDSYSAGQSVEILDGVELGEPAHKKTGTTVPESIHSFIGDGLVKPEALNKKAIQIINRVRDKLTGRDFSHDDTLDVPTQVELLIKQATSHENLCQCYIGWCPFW

B1: ETV7 protein (recombinant) (natural protein)
chain: MQEGELAISPISPVAAMPPLGTHVQARCEAQINLLGEGGICKLPGRLRIQPALWSREDVLHWLRWAEQEYSLPCTAEHGFEMNGRALCILTKDDFRHRAPSSGDVLYELLQYIKTQRRALVCGPFFGGIFRLKTPTQHSPVPPEEVTGPSQMDTRRGHLLQPPDPGLTSNFGHLDDPGLARWTPGKEESLNLCHCAELGCRTQGVCSFPAMPQAPIDGRIADCRLLWDYVYQLLLDTRYEPYIKWEDKDAKIFRVVDPNGLARLWGNHKNRVNMTYEKMSRALRHYYKLNIIKKEPGQKLLFRFLKTPGKMVQDKHSHLEPLESQEQDRIEFKDKRPEISP
notes: ETV7, bought recombinant protein; also called ETV7 (in vitro); purified ETV7; source: bought: Origene (Cat #TP307742)
In the case of B1, the binding result is listed as “binds”.
